Test: soluble fraction after stress (log2 fold change); higher = more stays soluble; pooled small domains, quantitative proteomics
Details: stress: 50 degC
Procedure, shortened: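 Pooled custom libraries of small protein domains were measured in a high-throughput format, with quantitative proteomics as the read-out. Each library was stressed at 50°C. Aggregation propensity is given as the base-two logarithm of the fold change in how much of each protein stays soluble after the stress. Higher values mean a larger share of the protein remains in solution.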

Sequence	soluble fraction (log2)
HMGTVKWFNATKGFGFIVPSDGGKDVFVHITAVQKAGLQGLNEGQKVSYEVAMERGKAAATNLR	-0.726
HMSVTMPNLVGLDEQTAVTRINSSNLSYGSTNYVHSDHEAGVVFKQSTPAYTEVDEHTKIYIWVSLGPEE	-0.0912
HMIGIRLKELVLKNQSAWVGLRVSELDISRKTMIVMIRRGDKMLIPNGSTILRSGDVLLLYTR	-0.452
HMRDPFDALSARERAVASLVQRGLRNKEVASELGLTEGTVKVHLHKVFDKLGIRGRTELILLAQER	-0.79
HMNKTLTEQIYDELKSAIIELELKPGEFVTEEYLAEQLGVSRTPLKSAISKLIFEGLMAYEVGKGTYIS	-0.747
HMRDQQHNIYLLEKAKRLYEEFLGDNRHIIAAEMARFEAVLETQDAIIIQRAQQQFSEFLNRFDG	-1.63
HMDSPALAIPSSAILRDGLEHIFFRQDPSDPDQVIRVVADLGLSDGRWTVVRSGLERTDQVVLSGA	0.0102
HMHKYEYESLNHVNVGSNLKYISTHFGQPKLIKKSKYHENLNFAYYLEKKFILTLILEGDRVNAYTITG	0.0565
HMKNPLIIGMTKDKIIELIGMPDNIKFLDSSLSKSEVWNYDKFGKKLYIKDEKLYQIENIEE	0.016
HMRTLGADLRALRKARGLTLAGMADNMGKSVGWMSQIERDISEPSISDLRALAKLLDVSVSSLFR	-2.23
HMGVGIAEAMKHVADEDYGDLSSEFQRIFSAVDGGSTLGDAVRAQMRATSSAGLRRTLSVLAMSVE	0.208
HMAEERVLSVPQSLAGERLDAALASLMPDYSRSRLASWIKEGLVTVDGAGAMPKQKLWGGETLRVQAQPT	0.463
HMQPRYMLIKTAILDAIERGEMKPGSQVPSENQLAQQHNVSRMTARRALSEMVDDGILMRSQGIGTFVSD	-0.0879
HMKMLKAPIPGTIIEVKVNPGQTVNDGDVAVVLEAMKMESDIHFNSSGKVKKIHVNKGDSVQEGDDLIELE	0.0938
HMSKNTFIGNIDDKELYVGSGRYGPFMLYDGKFTNITRYLSDESKELTDITIDDYSKIVNNARPK	-0.101
HMLPSDLDEGNRRRQLIEGAARLFRAKGFDGTSTRDIAAAAGMRSGSPFYHFDSKNALLYVVVQEGM	-0.0519
HMNKADFLRKLDRELSVLDQEERKEILSFYEERFYTGTNYENKTELDIINELENPEIIAKNVLEEYGV	-0.154
HMPNYVEMLRLHEAGFSLRQIAKLVSSGRNTVTRTVNIAQEKELSYEEIAQWSSEELENMFKPD	-1.68
HMFMLQAKRVPVSELENFKGIVAEDVVSQSRALILPRGSNLSWLSSSAMQNLSTRLALEGVESISIYL	-1.43
HMTDVHFIDVPVSEGHPWIGLTVKDLNLPPGTLLVFLNHPGEKSTVPNGDTVLREGDVLVLGATAYAG	-0.0795
HMDWNPVRDITAHQVLAILQATHIRAPTVAAEAKRTLSSIFQFAVATLRADIDPVWPVRNALPKNKT	0.00605
HMNNKSDLLFNHLRQRIATMENGTIFPSVRQLMTEYNVSQSTVSTAIRSLKELGLLEALSRQGMVVRKE	-0.476
HMTVDHDERRSMILEAFMRLAAREGLHAVSLRGVAAEAGISLRLVQYYFETKARLMQSGLTALET	-0.281

Sequence	soluble fraction (log2)
HMEYTVNHYPEKHRFEVVEDGLTAYVEYRLRGDALDIIHTIVPKNLEGRGIAATLVETAYKYAKEQ	-1.2
HMGRENGTVKWFNTSKGFGFITRDDGGDVFVHFRSIQGEGHRALQEGQRVSYVVANRDKGLQAEDVTILN	0.131
HMDDLATAYKAMGVDASISDKDLKRAYRKLMSQHHPDKMIAKGVPADMVAMATEKTQEIQAAYDLIERSR	0.127
HMDTLTRAMVWTIIARAEGVDTTGGATWYAKAQEWVTAKGISDGENPNAAITRQELVTMLYRLAGEPAV	-2.78
HMREIKSNEILLEVENLKNSEFFNDINFNIKKGEIVGFSGLIGAGRTELALTLFGYYKAESGKVIQ	0.061
HMAEVTLTVREQEVLHLLARGMSNGEMAAHLYVEPTTIKYHLTGLLQKTGSRDRLQAVLWGIRAGMVH	-2.18
HMSIVVPDLRGKTLEEARAILKEADLDFEINDSTFSKTARPGTIRDVVPSPGSRVKAGRILFISINGF	-0.519
HMLIDSNNYFFYKVKPKEGFYSLQKKLGVNRSEIEKHNPSLINEVLKEGMILKIPKYLLNFDLN	-0.297
HMLILTWNYPYEYPMMMRSFLQEIGISRTFLAHIKSNGELLINGRHEIVLKTLQPGDVLTMVIPPSG	-1.71
HMSTPERQEVLDILKRQGEMTPLQIAGQISRTSKSVSNILSKLKREGFVANGAKYGSWVSTES	0.0492
HMPQLSNEEQKIVDALEGSDGKQINLITVETNIPMARLMSVLFEMEMRGIVKSLNGARYKLN	-0.163
HMRQISDPTALASMVDKVIEDNPSAVADYRRGESKALGFLIGRVMQSSGGKANPKMIRGLLVKNLES	-0.0922
HMDDPYAGLRQRAYLFLRERDGAVPEEELIEHVFGSSGNPALWRPLLRQVLGADDRLDLRADGYWALRG	0.118
HMEHNDPEVERTMFQGLEALKLQLFEKAFGHFSLLIKLAPDYAEAWNKRATVLYLMGRFKESESDVMRTLE	0.0585
HMGGVIEDDRGQWAHPGEVTKINSNNITMKGVDFPVLGISDTGDKKMMQPGKDYKFDGNSVTEYPMA	-0.197
HMDDEELDALKGIPANEYTQEQIKQISEVFHTLQKNEVKDWLNSLQLRNIELPFELRNEVFSQ	0.159
HMAGYDTYMVDRDAELLPWLLETLQRESRSKVKATLQGNGIKVNGKRVTQFNYPLKAGMKVSVSKSK	-0.0376
HMLETADDAKRFLGAIISEKKAENLLRVYPDIIERIVAGKPVDLSLVKGIKQKTFDKLRQKVISHYSMY	0.119
HMRFNIGNVIEHYKLNTEDLAKVLFPTVKYPKQAFDRVLKGEANLDVIQLERLANHIGVLVTDLF	-0.196
HMTQEQKQQISDQLRAYVEQKGSGNKAAASMNGVSSATISKVLAGKWETISEDMWRSIAAQTGH	0.106
HMDETPESIFAKANELYPKYIKYFYTEQEYYSKVEEYINLYEFQKNSTYILGKDLEEFLEEYITNKQ	-0.517
HMSPPPRPSHPEAAGLRHLAFEVDNIDDAVRHLDRLGVPHEPVRTDEYTGRRFLFFTDPDRLPLELYEK	-0.0818
HMGQGEISVPRLEGLSLRETSELLGLFGLRLEAAGSGIALSQNPPAGARVKAGDVIQVDFGEPGN	0.0136

Sequence	soluble fraction (log2)
HMSEKAQSENEDLIKILALLIHAAKIDENYSEKEKKLIISFAEMSSNKKLDREQINSLVDKAEQYEK	-0.17
HMEDWTPERFVGAFVSGGPALRDEILLAATKDLSHAQATRLLKLAEARGLVHRSQPGPSERVRFVVARK	-0.258
HMYDDEELDVLAHRPIESYTDAELAMLREVAETLLETDYEGWLKSLSMRGILLPPEILQLVT	-0.049
HMALQLPFSFAKRHKVLVESAHEPVKVYHTPSTDFAVFAEVRRFLDQTFVLEEIAENRFEELLTSSFQRD	-1.27
HMELIELTVTEEFEMARLDQFLAGHLTQSRTYIQKLIKAGQITINGNLITRVKVPVHYGDFILINIPDPE	-3.54
HMNEVRINTAHIEHKYLGEVKVLDIQEMRNARGRDADPLAFLAIRFWSPRGVLVRVKDSRDATPYWLIS	0.3
HMTLAEEFNNLNGKVITRETLESLLVKAEKEQNSTISNRIRKVLQAYTADTFLIELQHTESA	0.0776
HMGIDRPLFTLAQFARQIGEQVKISLSLPQDGRRRLQGKVLSVGESGIVLDVDGREFTVAIGNVDKARL	-1.24
HMVTYELTEDEKFIVSLLEKENSQPIGALKDKSALSGKKWDAAMKGLAKHGLTKVVVDGDNKLVVL	-0.00965
HMGNKWALLVVFILNENGSTRFNQLARQIPDISTKVLSNTLQILEADGLVKRTVFPEVPIRVEYELTATGK	-3.64
HMEEDPIIIAQRFLNIFRQLHIFSEEKKESFNKMLLEQPAEIRGALRSLPGGGLLQDYIDDLESKA	-0.151
HMTTVDYDALRAAILQQVVSEDTTPALTTENTEIKYKFKFGLDTWVDLDGGKIAPAVSAKSYEIQISFKG	0.132
HMGNRQEQVRIIRDLWRQLADAGQPVPAKHLTLDLDALDATQLTKLEDQAHGWLAKLSAQADLADAA	-0.0488
HMAGSGLPVPRFVSLADDRVNARAGPGFRFPINWVYLRKGFPVEVVDEFGPWRRIRDIDGVAAWIHLSMLS	-0.85
HMSVKSVSLRKISYKVRRGDSLYNIAKNFSLSINDITHWNSINKKSYLQPGQRLTLYINPRN	-1.71
HMVRKIQAKLVLRLHAQGLSGRAIARSQGMSRRSVSDVLDAARAVGVGWDDVTGKTDGEVYALLFPGRG	-2.47
HMYEDNERSLVPIVQNFLKEKKILLSNQSINLIVQRSGGDRINLYNELQKIESFSKNQKKIDIGDIIKLTN	-0.286
HMKPEDIALLEEIRDLLKEKKSVIVNLEYVNKDVARRIVDFISGGVFALNGHIQKVSNSIFLVAPMN	0.00619
HMVDERMVTYINSLDKGNTPFLNELEKEALANYVPIIRREMQSFLKVLLQIKAPLRILEVGTAVGFSTILM	0.199
HMENYYMPVVAGQSEQDAKSMLNAMKLSLSIQVQEQESDSVAKGLAIGTSPAAGSQIRKGSSVILYISKGA	-0.0609
HMTNYREILRLRSLGLNHSRIAESMGISRPTVIAALQRAQTQELNWQAAESLSDIDLAQRLNP	-0.395
HMHKTEIKIPSREDILAVLRQAQAPLTREQVFEHLKLTEDQIPIIEKRLNAMERDGQLMPNRKGMLLLSTK	0.266
HMIGMDMQELIGRYKGDPDEMGKIELAAMSMLKLSEDMSSDHVLQKSKLRQDGLWLLKYVQE	-0.551
